# Experimental data: patent US20150353911
# Target: FVII-186, P08709
# Sequence (P08709 whole entry, looked up): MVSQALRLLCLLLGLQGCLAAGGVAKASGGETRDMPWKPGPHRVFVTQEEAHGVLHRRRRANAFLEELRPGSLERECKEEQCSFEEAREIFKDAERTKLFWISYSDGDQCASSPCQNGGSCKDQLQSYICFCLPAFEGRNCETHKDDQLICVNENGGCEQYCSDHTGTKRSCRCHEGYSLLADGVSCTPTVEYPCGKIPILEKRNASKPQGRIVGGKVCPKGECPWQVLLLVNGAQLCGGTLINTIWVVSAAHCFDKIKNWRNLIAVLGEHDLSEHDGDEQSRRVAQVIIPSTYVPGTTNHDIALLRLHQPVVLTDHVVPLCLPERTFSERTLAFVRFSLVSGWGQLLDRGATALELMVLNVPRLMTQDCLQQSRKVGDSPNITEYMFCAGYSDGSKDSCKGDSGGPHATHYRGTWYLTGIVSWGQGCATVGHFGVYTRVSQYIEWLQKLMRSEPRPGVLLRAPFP
protein,measurement,value
SUMO protease (Invitrogen Cat. No. 12588-018) (protein) LVPELNEKDDDQVQKALASRENTQLMNRDNIEITVRDFKTLAPRRWLNDTIIEFFMKYIEKSTPNTVAFNSFFYTNLSERGYQGVRRWMKRKKTQIDKLDKIFTPINLNQSHWALGIIDLKKKTIGYVDSLSNGPNAMSFAILTDLQKYVMEESKHTIGEDFDLIHLDCPQQPNGYDCGIYVCMNTLYGSADAPLDFDYKDAIRMRRFIAHLILTDALK,cleavage of SUMO from FVII-186 (reducing SDS-PAGE),showed almost complete conversion of FVII-186 to the desired FVIIHC
